Assay results as given in PMC9195068, “The action of Con-ikot-ikot toxin on single AMPA-type glutamate receptors” (The Journal of General Physiology, 2022).

Molecular target: the molecule itself
Assay: non-reducing SDS-PAGE

B1: Con-ikot-ikot toxin (natural protein)
chain: SGPADCCRMKECCTDRVNECLQRYSGREDKFVSFCYQEATVTCGSFNEIVGCCYGYQMCMIRVVKPNSLSGAHEACKTVSCGNPCA
notes: also called CII; CII toxin
Q: For B1, which “stoichiometry N” value is on record?
A: 2
